This note sets out measurements from PMC10899662, “TopBP1 utilises a bipartite GINS binding mode to support genome replication” (Nature Communications, 2024).

Substitutions are numbered along the chain they refer to.

One assay deals with GINS. As to the kind of experiment: Pulldown of recombinant TopBP1-BRCT0-5 by immobilised GINS, 150 mM NaCl. It is filed as binding. The note with it: for GINS binding? (rec. proteins): summary of recombinant protein interaction tests (yes/no); for GINS interaction: 100 nM TopBP1, 20 mM HEPES pH 8.0, 150 mM NaCl, 0.01% Tween-20, 45 min, 4 °C. The source says: Fig. 1 GINS and TopBP1 interact. a (i) Domain model of human (hs) TopBP1, its conservation with BRCT1/2 and 3/4 domains (grey boxes) of budding yeast Dpb11 (scDpb11). Arrows point to binding domains for interacting proteins. (ii) Overview of TopBP1 wild type (WT) and BRCT deletion (Δ) and point mutants. GINS binding capabilities are labelled in red and green. Numbers, amino acid position; capital letters indicate amino acid substitutions. Amino acid substitutions of point mutants in BRCT4 (B4mut) and 5 (B5mut) are coloured orange. b Elution profiles of size exclusion chromatography (Superdex200) of individual recombinant TopBP1-BRCT0-5 protein (grey) and GINS tetramers (green), or of both upon incubation (blue). c Recombinant GINS immobilised on Flag-beads and control beads (Flag peptide-coupled beads) were used to pull down recombinant TopBP1-0-5-WT or TopBP1-ΔBRCT4/5 (compare a(ii)). SDS gels were silver stained. kDa specifies molecular weight marker bands. The experiment was done more than three times with similar results. Source data are provided as a Source data file. TEXT PRINTED IN THE PICTURE: (a) BRCT0-5-WT: GINS binding? (rec. proteins): yes | (a) ΔBRCT4/5: GINS binding? (rec. proteins): no | (a) ΔBRCT3: GINS binding? (rec. proteins): yes | (a) ΔBRCT0/1/2: GINS binding? (rec. proteins): yes | (a) B5mut: GINS binding? (rec. proteins): yes | (a) B4mut: GINS binding? (rec. proteins): no
Fig. 2 Protein structure of the GINS-TopBP1-BRCT4/5 complex. a Structural model of the GINS-TopBP1-BRCT4/5 complex. Crystal structures of the GINS subunits (PDB:2E9X) (shades of green, yellow), and the central BRCT4/5 domain of TopBP1 (PDB:3UEN) (grey) were docked into the cryo-EM volume shown as transparent volume. b Zoom-in of the BRCT4-Psf1 interface. The residues in stick representation appear crucial for the interface. Mutations to break the interaction are coloured pink (Psf1-I97R) and purple (TopBP1-B4mut; compare Fig. 1a(ii)). c Pulldown of the indicated recombinant TopBP1-BRCT0-5-strep versions (see Fig. 1a(ii)) by Flag-beads-immobilised recombinant GINS or Flag peptide-coupled control beads. Analysis was done by immunoblotting. The experiment was done more than three times with similar results. d Pulldown of the indicated recombinant TopBP1-BRCT0-5-WT-strep using immobilised GINS-WT or GINS carrying a Ile97 to arginine mutation in Psf1.TopBP1-Gcc/B4mut-strep (Figs. 1a(ii) and 3a) was used as a non-GINS binding control. The experiment was done twice with similar results. Source data are provided as a Source data file.
Fig. 3 The conserved core of the TopBP1-GINI domain is required for a stable interaction with GINS. a Domain model and T-COFFEE alignment (one-letter aa code) of TopBP1 proteins from humans (Q92547) Xenopus laevis (Q7ZZY3), Bos taurus (A0A3Q1LWE4) and Rattus norvegicus (A0A8I6GFZ6). Coloured boxes indicate GINI region mutants in sub-regions I (blue), II (green) and III (orange), and in the GINI core helix (red) (details in Supplementary Fig. 7). Amino acid substitutions, names of GINI core region mutations and corresponding GINS binding capabilities are shown. ., : and * indicate low conservation, high conservation and identical amino acids, respectively. b/c Pulldown of recombinant TopBP1-BRCT0-5-strep-WT or the indicated GINI region mutants (a) by bead-immobilised GINS or Flag peptide-coupled control beads. Analysis was done by immunoblotting. The experiments were done more than three times with similar results. Source data are provided as a Source data file. d Fluorescence polarisation measurements including dissociation constants (kD) calculations using recombinant GINS tetramer and fluorescently labelled TopBP1-GINI-core peptides (WT or Gpp (a)). For each peptide n = 3 independent experiments and data are presented as mean values +/−SEM. TEXT PRINTED IN THE PICTURE: (a) TopBP1-Gcc: GINS binding? (rec. proteins): no | (a) TopBP1-Gcore: GINS binding? […]

In a further assay the test system is 53BP1. Nature of the assay: Pulldown of endogenous 53BP1 from 293T cell lysates with recombinant TopBP1. The class given is binding. Conditions: pulldown from 293T cell lysates, immunoblotting; 2 h, 4 °C. The procedure:
For pulldown assays from soluble lysates of non-transfected 293T cells, 5 µl streptactin Sepharose HP (Cytiva, 28935599) beads were coupled with 10 µg recombinant TopBP1-1-766-strep-WT or mutants in coupling buffer (20 mM HEPES pH 8.0, 150 mM NaCl, 0.1% (v/v) Tween-20, 0.5 mM TCEP, 2% (v/v) glycerol) for 45 min at 4 °C before washing two times with coupling buffer and then once in cell lysis buffer (20 mM HEPES pH 8.0, 150 mM NaCl, 0.1% (v/v) Tween-20, 0.5 mM TCEP, 2% (v/v) glycerol, protease inhibitor cocktail (Roche Complete protease inhibitor cocktail, 05056489001). Control pulldowns were done with Flag-peptide-coupled beads or, when indicated, using GINS-coupled beads and the non-GINS binding TopBP1-Gcc-B4mut. 293T cells were lysed in ten times pellet volume of cell lysis buffer, and centrifuged at 20,000 × g for 15 min at 4 °C. Soluble lysate from cells equivalent to 50% of a 15 cm tissue culture plate was added to the TopBP1-coupled beads and incubated for 2 h at 4 °C rotating. Beads were washed three times with 5 min incubation in lysis buffer and boiled in 50 µl Laemmli buffer before SDS PAGE.
Supplementary Fig. 6: Experiments to control quality of recombinant protein mutants. a: Recombinant TopBP1 point mutants of the GINI and BRCT4 regions bind 53BP1 phospho-dependently. […] Lysates and pulldowns were analysed by immunoblofng. […]
(In general: Immunoblotting shows a protein as a band on a membrane.)

B1: TopBP1-BRCT0-5-WT: recombinant TopBP1 amino acids 1–766, strep-tagged (protein)
chain: MSRNDKEPFFVKFLKSSDNSKCFFKALESIKEFQSEEYLQIITEEEALKIKENDRSLYICDPFSGVVFDHLKKLGCRIVGPQVVIFCMHHQRCVPRAEHPVYNMVMSDVTISCTSLEKEKREEVHKYVQMMGGRVYRDLNVSVTHLIAGEVGSKKYLVAANLKKPILLPSWIKTLWEKSQEKKITRYTDINMEDFKCPIFLGCIICVTGLCGLDRKEVQQLTVKHGGQYMGQLKMNECTHLIVQEPKGQKYECAKRWNVHCVTTQWFFDSIEKGFCQDESIYKTEPRPEAKTMPNSSTPTSQINTIDSRTLSDVSNISNINASCVSESICNSLNSKLEPTLENLENLDVSAFQAPEDLLDGCRIYLCGFSGRKLDKLRRLINSGGGVRFNQLNEDVTHVIVGDYDDELKQFWNKSAHRPHVVGAKWLLECFSKGYMLSEEPYIHANYQPVEIPVSHKPESKAALLKKKNSSFSKKDFAPSEKHEQADEDLLSQYENGSSTVVEAKTSEARPFNDSTHAEPLNDSTHISLQEENQSSVSHCVPDVSTITEEGLFSQKSFLVLGFSNENESNIANIIKENAGKIMSLLSRTVADYAVVPLLGCEVEATVGEVVTNTWLVTCIDYQTLFDPKSNPLFTPVPVMTGMTPLEDCVISFSQCAGAEKESLTFLANLLGASVQEYFVRKSNAKKGMFASTHLILKERGGSKYEAAKKWNLPAVTIAWLLETARTGKRADESHFLIENSTKEERSLETEITNGINLNSDTAEHP
modifications: left off: Strep, C-terminal, kept
notes: recombinant TopBP1 amino acids 1–766, strep-tagged
B1: in the assay with GINS, the “GINS binding? (rec. proteins)” value is “yes”.

B2: TopBP1-B4mut: Val590, Thr606 and Val610 mutated to glutamate, arginine and glutamate (protein)
chain: B1 chain with V590E, T606R, V610E
modifications: left off: Strep, C-terminal, kept
For B2, in the assay on GINS, the “GINS interaction” value is reported as “strongly compromised in its ability to bind GINS” and the “GINS binding? (rec. proteins)” value is given as “no”. Further, the “binding to (phospho-)53BP1” value with 53BP1 is reported as “could still interact with phospho-53BP1”.

B3: TopBP1-Gpp: TopBP1-BRCT0-5, central leucine-leucine motif mutated to two consecutive prolines (protein)
chain: B1 chain with L490P, L491P
modifications: left off: Strep, C-terminal, kept
notes: TopBP1-BRCT0-5, central leucine-leucine motif mutated to two consecutive prolines
In the case of B3, in the assay with GINS, the “GINS interaction” value was “strongly compromised” and the “GINS binding? (rec. proteins)” value is given as “no”. Moreover, the “binding to (phospho-)53BP1” value in the assay with 53BP1 is “no effect on binding to 53BP1”.
